{
  "source": "paper PMC8809517",
  "about": "“Cofactor-independent RNA editing by a synthetic S-type PPR protein”",
  "binders": {"B1": {"name": "IR-rpoA-U (ssRNA)", "RNA": "AUUAUACGUGA"}, "B2": {"name": "IR-rpoA-A (ssRNA)", "RNA": "AUUAAACGUGA"}, "B3": {"name": "Cy5-rpoA (ssRNA)", "RNA": "AUUACACGUGA"}, "B4": {"name": "Cy5-rpoA-G (ssRNA)", "RNA": "AUUAGACGUGA"}},
  "experiment_in_all_cases": "high-throughput RNA pulldown from lysate on Ni-NTA beads; HRP: 50 mM Tris pH 8, 150 mM NaCl, 1 mM beta-mercaptoethanol, 50 ug/ml BSA, 3 ug/ml yeast RNA, 0.5% heparin; ITC and FP: Tris pH 8, 200 mM KCl, 5% glycerol; MST: 50 mM Tris pH 8, 200 mM NaCl, 1 mM DTT, BSA, heparin, 0.05% Tween 20",
  "details_in_all_cases": "tags: N-terminal His-eGFP",
  "key": {"[1]": {"molecular_target": "T1, GFP-9S library array, motif 4 ND N98A;D124R (synthetic construct, N98A;D124R)", "T1 chain": "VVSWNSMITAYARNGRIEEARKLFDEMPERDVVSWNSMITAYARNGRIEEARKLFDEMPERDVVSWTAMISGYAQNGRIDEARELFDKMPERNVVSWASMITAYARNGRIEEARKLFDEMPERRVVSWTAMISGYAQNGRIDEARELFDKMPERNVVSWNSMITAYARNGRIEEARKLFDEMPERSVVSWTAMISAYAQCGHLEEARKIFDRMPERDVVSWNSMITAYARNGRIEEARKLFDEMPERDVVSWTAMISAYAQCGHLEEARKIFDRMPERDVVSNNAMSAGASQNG"}, "[2]": {"molecular_target": "T2, GFP-9S library array, motif 4 ND N98P;D124T (synthetic construct, N98P;D124T)", "T2 chain": "T1 chain with A98P, R124T"}, "[3]": {"molecular_target": "T3, GFP-9S library array, motif 4 ND N98P;D124V (synthetic construct, N98P;D124V)", "T3 chain": "T1 chain with A98P, R124V"}, "[4]": {"molecular_target": "T4, GFP-9S library array, motif 4 ND N98K;D124T (synthetic construct, N98K;D124T)", "T4 chain": "T1 chain with A98K, R124T"}, "[5]": {"molecular_target": "T5, GFP-9S library array, motif 4 ND N98M;D124S (synthetic construct, N98M;D124S)", "T5 chain": "T1 chain with A98M, R124S"}},
  "note": "Residue numbers refer to the chain shown, from its start.",
  "data": [
    {"binder": "B1", "values": [
      {"measurement": "Kd", "setting": "[1]; label: 5' IRDye 800CW", "result": 160, "unit": "nM"},
      {"measurement": "Kd", "setting": "[2]; label: 5' IRDye 800CW", "result": 179, "unit": "nM"},
      {"measurement": "Kd", "setting": "[3]; label: 5' IRDye 800CW", "result": 291, "unit": "nM"},
      {"measurement": "Kd", "setting": "[4]; label: 5' IRDye 800CW", "result": 212, "unit": "nM"},
      {"measurement": "Kd", "setting": "[5]; label: 5' IRDye 800CW", "result": 48.4, "unit": "nM"}
    ]},
    {"binder": "B2", "values": [
      {"measurement": "Kd", "setting": "[1]; label: 5' IRDye 800CW", "result": 254, "unit": "nM"},
      {"measurement": "Kd", "setting": "[2]; label: 5' IRDye 800CW", "result": 405, "unit": "nM"},
      {"measurement": "Kd", "setting": "[3]; label: 5' IRDye 800CW", "result": 407, "unit": "nM"},
      {"measurement": "Kd", "setting": "[4]; label: 5' IRDye 800CW", "result": 211, "unit": "nM"},
      {"measurement": "Kd", "setting": "[5]; label: 5' IRDye 800CW", "result": 65.9, "unit": "nM"}
    ]},
    {"binder": "B3", "values": [
      {"measurement": "Kd", "setting": "[1]; label: 5' Cy5", "result": 178, "unit": "nM"},
      {"measurement": "Kd", "setting": "[2]; label: 5' Cy5", "result": 176, "unit": "nM"},
      {"measurement": "Kd", "setting": "[3]; label: 5' Cy5", "result": 121, "unit": "nM"},
      {"measurement": "Kd", "setting": "[4]; label: 5' Cy5", "result": 76.8, "unit": "nM"},
      {"measurement": "Kd", "setting": "[5]; label: 5' Cy5", "result": 50.4, "unit": "nM"}
    ]},
    {"binder": "B4", "values": [
      {"measurement": "Kd", "setting": "[1]; label: 5' Cy5", "result": 166, "unit": "nM"},
      {"measurement": "Kd", "setting": "[2]; label: 5' Cy5", "result": 177, "unit": "nM"},
      {"measurement": "Kd", "setting": "[3]; label: 5' Cy5", "result": 150, "unit": "nM"},
      {"measurement": "Kd", "setting": "[4]; label: 5' Cy5", "result": 83.6, "unit": "nM"},
      {"measurement": "Kd", "setting": "[5]; label: 5' Cy5", "result": 73.1, "unit": "nM"}
    ]}
  ]
}
